The results in this text go back to publication doi:10.1101/2021.01.13.426511.

The assay concerns the target phospho His-cSrcKD-K295M/Y416F (human). The experiment in a line: BLI. (Biolayer interferometry detects binding as a change in optical thickness at a sensor tip.)

For “rPTPεD1-C335S (D1 domain of receptor protein tyrosine phosphatase epsilon, substrate-trapping mutant) (domain or fragment)”, the Kd (as a rule, the equilibrium constant for the complex coming apart) stood at 34 µM and the kon (in general, the second-order rate constant of association) is 998 M⁻¹ s⁻¹.

For “rPTPεD1-C335S/R220E (domain or fragment)”, the Kd came out at 257 µM and the association rate constant (kon) turned out to be 128 M⁻¹ s⁻¹.
